From article PMC7357788, “Overlapping functions and protein-protein interactions of LRR-extensins in Arabidopsis” (PLoS Genetics, 2020)
“Also recorded” adds a separate entry of the source. Ends that are not written are not given here.

Experiments:
LRX1^ΔE = assay: Co-IP of LRX1^ΔE-HA with RALF1-FLAG; format: binding, Arabidopsis thaliana; settings: Co-IP and immunoblotting, transient expression in N. benthamiana
Method: Here, we tested binding of RALF1 to LRX1.
For pulldown and Co-IP analysis of the different constructs indicated in the experiments DNA was infiltrated into Nicotiana benthamiana leaves, and after 48 hrs, the leaves were excised and ground in liquid nitrogen as described in [62]. Two hundred mg of tissue powder was re-suspended in 500 μL extraction buffer [200 mM Tris-HCl (pH 7.5), 150 mM NaCl, 1 mM PMSF, protease inhibitor and 0.5% Triton X-100]. The suspension was incubated on ice for 30 minutes and then centrifuged at 11,000 rpm for 20 minutes at 4°C. The supernatant (200 μL) was then incubated with 10 μL anti-HA (Thermo Scientific, 88837), or anti-FLAG magnetic beads overnight at 4°C on a rotating shaker. If RALF1 peptide was added, the peptide was diluted in such way that for every sample 1μL of peptide was added to the protein extracts. After incubation, the beads were washed five times with the wash buffer (extraction buffer containing 0.05% Triton X-100) and boiled in SDS-PAGE loading buffer for 15 minutes at 75°C. The immunoprecipitates were then run on an SDS-PAGE gel and transferred to nitrocellulose membrane to perform immunoblotting using the following antibodies: anti-FLAG M2 (Sigma-Aldrich, F3165), anti-GFP (Biolegend, 902601), anti-HA-HRP 3F10 (Roche, 12 013 819 001) and anti-mouse-HRP (Sigma Aldrich, A 4416). […]

LRX3, LRX4, and LRX5 = settings: vegetative tissues; ref [40],[41]; cited from earlier work
From the text: LRX proteins were recently identified as high-affinity binding sites for RALF peptides, with the binding spectrum differing among the LRXs. […] Whether and how the binding of RALFs and FER to LRXs influences the interaction of these proteins remains to be investigated. It is also unknown to what extent the different LRXs are functionally similar and whether they share FER as a common interaction ...

FLS2-BAK1 = settings: ref [17]; cited from earlier work
From the text: Different LRXs bind an overlapping but not identical array of RALF peptides, and the full binding spectrum of the different LRXs might be even broader. One reason for the distinct RALF binding spectrum of LRXs is based on their expression pattern. […] It can be speculated that the diverse affinities of RALFs and LRXs contribute to the specificities of the plant’s response to different RALF peptides that have distinct biological activities [[17],[18],[19],[20],[26 ...

[1] = target: LRX1^ΔE-FLAG (Arabidopsis thaliana); assay: BLI; BLITZ; LRX^ΔE-FLAG mixed with anti-FLAG M2 antibody and loaded onto a protein A biosensor; synthetic RALF1 peptide added at 0.2-200 μM; association 120 s, dissociation 120 s; sample diluent buffer (Pall FortéBio)
[2] = target: LRX3^ΔE-FLAG (Arabidopsis thaliana) (UniProt Q9T0K5); assay: as above
[3] = target: LRX4^ΔE-FLAG (Arabidopsis thaliana) (UniProt Q9LHF1); assay: as above
LRX4^ΔE-FLAG (Arabidopsis thaliana), sequence (Q9LHF1 26-494, stated change not applied): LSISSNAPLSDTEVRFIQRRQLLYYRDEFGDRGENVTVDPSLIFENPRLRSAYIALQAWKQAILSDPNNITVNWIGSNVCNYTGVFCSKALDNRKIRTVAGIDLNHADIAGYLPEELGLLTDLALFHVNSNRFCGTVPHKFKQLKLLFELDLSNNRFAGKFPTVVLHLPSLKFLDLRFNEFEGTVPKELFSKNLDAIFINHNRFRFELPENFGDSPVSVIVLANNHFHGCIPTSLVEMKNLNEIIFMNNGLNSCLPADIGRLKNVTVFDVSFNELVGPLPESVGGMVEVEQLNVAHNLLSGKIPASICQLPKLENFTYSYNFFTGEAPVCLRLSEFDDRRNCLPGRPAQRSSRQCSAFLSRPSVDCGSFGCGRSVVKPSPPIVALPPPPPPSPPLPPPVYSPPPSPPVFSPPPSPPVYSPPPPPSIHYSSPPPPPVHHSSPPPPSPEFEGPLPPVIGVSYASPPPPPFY

[4] = target: LRX5^ΔE-FLAG (Arabidopsis thaliana) (UniProt Q9SN46); assay: as above
LRX5^ΔE-FLAG (Arabidopsis thaliana), sequence (Q9SN46 32-857, stated change not applied): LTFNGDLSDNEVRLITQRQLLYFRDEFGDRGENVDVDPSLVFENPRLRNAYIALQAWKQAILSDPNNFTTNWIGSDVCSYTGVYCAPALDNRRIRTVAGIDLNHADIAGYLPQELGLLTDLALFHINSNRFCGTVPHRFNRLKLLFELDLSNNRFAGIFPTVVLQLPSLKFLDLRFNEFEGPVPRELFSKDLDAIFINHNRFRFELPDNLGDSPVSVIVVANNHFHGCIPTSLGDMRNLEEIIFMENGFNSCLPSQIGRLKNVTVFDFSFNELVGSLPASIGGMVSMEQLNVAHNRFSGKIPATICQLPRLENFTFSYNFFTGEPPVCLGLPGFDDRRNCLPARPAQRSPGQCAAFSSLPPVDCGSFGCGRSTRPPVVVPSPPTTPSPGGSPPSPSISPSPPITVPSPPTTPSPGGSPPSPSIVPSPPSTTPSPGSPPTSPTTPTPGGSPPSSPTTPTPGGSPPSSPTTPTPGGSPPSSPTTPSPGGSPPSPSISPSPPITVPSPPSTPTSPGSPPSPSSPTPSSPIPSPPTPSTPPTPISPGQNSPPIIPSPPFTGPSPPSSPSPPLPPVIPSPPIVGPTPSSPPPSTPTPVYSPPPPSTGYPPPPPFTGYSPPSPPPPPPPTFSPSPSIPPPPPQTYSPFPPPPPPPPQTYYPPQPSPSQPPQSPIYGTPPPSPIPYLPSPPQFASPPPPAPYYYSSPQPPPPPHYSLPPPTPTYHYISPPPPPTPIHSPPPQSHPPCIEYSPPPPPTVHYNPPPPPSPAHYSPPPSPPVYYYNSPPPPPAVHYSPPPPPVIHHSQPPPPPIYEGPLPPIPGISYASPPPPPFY

FER^ECD [5] = assay: Yeast-two-hybrid LRX LRR domain-FER^ECD; format: binding, Arabidopsis thaliana; settings: Y2H, yeast strain PJ69-4A, LRR domains, -Trp, Leu, His, Ade drop-out medium containing 5 mM 3-AT
From the text: The BD-LRX4 and AD-FER^ECD constructs for the Yeast-two-hybrid experiment were cloned as previously described, where NtermFER equals AD-FER^ECD and LRR4 equals BD-LRX4. For the BD-LRX1/2/3/5 constructs, the coding sequence of the LRR domain of the LRXs was amplified using primers (S3 Table) to introduce a BamHI and a XhoI site at the 5’ and 3’ end of the PCR fragments, respectively. These were cloned into pJET1.2 (Thermo Scientific) and correct clones were cut with BamHI and XhoI and ligated into pGBKT7 cut with BamHI and SalI. The AD-RALF1 construct was cloned into pJET1.2 (Thermo Scientific) by amplification of the coding sequence with the primers y2h_RALF1_F and y2h_RALF1_R. A correct clone was cut with EcoRI and XmaI and ligated into pGADT7 cut with EcoRI and XmaI.
Transformation of the yeast strain PJ69-4A [63] was done following standard procedures and quadruple drop-out medium lacking Leu, Trp, His, and Ade were used to screen for positive interactions after 4 days incubation at 30°C. Three different colonies containing both vectors were mixed and plated in triplicates on quadruple drop-out medium.
Supplementary file pgen.1008847.s001.pdf: S1 Fig Interaction of LRXs and FER in yeast-two-hybrid assays. […]

FER^ECD [6] = assay: Co-IP of LRX^ΔE with FER^ECD-Citrine; format: binding, Arabidopsis thaliana; settings: proteins expressed in N. benthamiana
From the text: The root hair-localized LRX1 is so far the best characterized LRX protein and the lrx1 root hair mutant represents a convenient genetic system for analyses of LRX protein function. […] To this end, constructs encoding LRX1^ΔE-FLAG and the extracellular domain of FER fused to citrine (FER^ECD-Citrine) under the 35S promoter were expressed in tobacco for Co-IP experiments. […] The Y2H experiments were extended to other LRXs of vegetative tissues, namely the LRR domains of LRX2, LRX3, LRX4, and LRX5.
For pulldown and Co-IP analysis of the different constructs indicated in the experiments DNA was infiltrated into Nicotiana benthamiana leaves, and after 48 hrs, the leaves were excised and ground in liquid nitrogen as described in [62]. Two hundred mg of tissue powder was re-suspended in 500 μL extraction buffer [200 mM Tris-HCl (pH 7.5), 150 mM NaCl, 1 mM PMSF, protease inhibitor and 0.5% Triton X-100]. The suspension was incubated on ice for 30 minutes and then centrifuged at 11,000 rpm for 20 minutes at 4°C. The supernatant (200 μL) was then incubated with 10 μL anti-HA (Thermo Scientific, 88837), or anti-FLAG magnetic beads overnight at 4°C on a rotating shaker. If RALF1 peptide was added, the peptide was diluted in such way that for every sample 1μL of peptide was added to the protein extracts. […]

RALF1-FLAG: FLAG-tagged RALF1 transiently expressed in N. benthamiana (ATTKYISYQSLKRNSVPCSRRGASYYNCQNGAQANPYSRGCSKIARCRS; ends and bridges not checked; also: FLAG tag, site not given here; UniProt Q9SRY3 72-120, looked up)
interaction with LRX1^ΔE (LRX1^ΔE): showed interaction of the two proteins

RALF23: RALF peptide reported to be bound by LRX3, LRX4, and LRX5 (ATRRYISYGALRRNTIPCSRRGASYYNCRRGAQANPYSRGCSAITRCRRS; UniProt Q9LUS7 89-138, looked up)
binding to LRX3, LRX4, and LRX5 (LRX3, LRX4, and LRX5): reported to bind | effect on scaffolding function of FER (FLS2-BAK1): inducing the dissociation of FLS2 from BAK1

ATTKYISYQSLKRNSVPCSRRGASYYNCQNGAQANPYSRGCSKIARCRS [synthetic RALF1 peptide]
Kd [1]: 4.5 nM | Kd [2]: 11000 nM | Kd [3]: 5.5 nM | Kd [4]: 3.5 nM

B1: LRX1: LRR domain of LRX1 (BD-LRX1), gene At1g12040 (protein)
chain: MLFPPLRSLFLFTLLLSSVCFLQIKADHDDESDLGSDIKVDKRLKFENPKLRQAYIALQSWKKAIFSDPFNFTANWNGSDVCSYNGIYCAPSPSYPKTRVVAGIDLNHADMAGYLASELGLLSDLALFHINSNRFCGEVPLTFNRMKLLYELDLSNNRFVGKFPKVVLSLPSLKFLDLRYNEFEGKIPSKLFDRELDAIFLNHNRFRFGIPKNMGNSPVSALVLADNNLGGCIPGSIGQMGKTLNELILSNDNLTGCLPPQIGNLKKVTVFDITSNRLQGPLPSSVGNMKSLEELHVANNAFTGVIPPSICQLSNLENFTYSSNYFSGRPPICAASLLADIVVNGTMNCITGLARQRSDKQCSSLLARPVDCSKFGCYNIFSPPPPTFKMSPEVRTLPPPIYVYSSPPPPPSSKMSPTVRAYSPPPPPSSKMSPSVRAYSPPPPPYSKMSPSVRAYPPPPPPSPSPPPPYVYSSPPPPYVYSSPPPPPYVYSSPPPPPYVYSSPPPPYVYSSPPPPYVYSSPPPPPPSPPPPCPESSPPPPVVYYAPVTQSPPPPSPVYYPPVTQSPPPPSPVYYPPVTNSPPPPSPVYYPPVTYSPPPPSPVYYPQVTPSPPPPSPLYYPPVTPSPPPPSPVYYPPVTPSPPPPSPVYYPPVTPSPPPPSPVYYPSETQSPPPPTEYYYSPSQSPPPTKACKEGHPPQATPSYEPPPEYSYSSSPPPPSPTSYFPPMPSVSYDASPPPPPSYY
modifications: left off: Gal4 DNA-binding domain (from the vector pGBKT7), end not stated, kept
notes: LRR domain of LRX1 (BD-LRX1), gene At1g12040
interaction with FER^ECD (FER^ECD [5]): confirmed in a yeast-two-hybrid (Y2H) experiment | interaction with FER^ECD (FER^ECD [6]; listed as LRX1^ΔE): show interaction with FER^ECD

B2: LRX2: LRR domain of LRX2 (BD-LRX2), gene At1g62440 (protein)
chain: MLLFPSTSLRLFFFLFLLFSSCFLQIRGDDDDDDISDDNIKVDPSLKFENPSLRQAYIALQSWKQAIFSDPFNFTANWNGSDVCSYNGIFCAPSPSSPKTRVVAGIDLNHADMAGYLPRELGLLTDLALFHLNSNRFCGEVPLTFKHMKLLFELDLSNNRFVGKFPNVVLSLPSLKFLDLRYNEFEGSIPSKLFDKELDAIFLNHNRFMFGIPENMGNSPVSALVLADNDLGGCIPGSIGLMGKTLNEIILSNDNLTGCLPPQIGNLKNVTVFDISFNRLSGPLPSSIGNMKSLEQLNVANNRFTGVIPSSICQLSNLENFTYSSNFFTGDAPRCVALLGDNVVVNGSMNCIDGKEDQRSSKECSSPASRSVDCSKFGCNNFFSPPPPSFKMSPTVRVLPPPPPSSKMSPTFRATPPPPSSKMSPSFRATPPPPSSKMSPSFRATPPPPSSKMSPSVKAYPPPPPPPEYEPSPPPPSSEMSPSVRAYPPPPPLSPPPPSPPPPYIYSSPPPPSPSPPPPYIYSSPPPVVNCPPTTQSPPPPKYEQTPSPREYYPSPSPPYYQYTSSPPPPTYYATQSPPPPPPPTYYAVQSPPPPPPVYYPPVTASPPPPPVYYTPVIQSPPPPPVYYSPVTQSPPPPPPVYYPPVTQSPPPSPVYYPPVTQSPPPPPVYYLPVTQSPPPPSPVYYPPVAKSPPPPSPVYYPPVTQSPPPPSTPVEYHPPASPNQSPPPEYQSPPPKGCNDSPSNDHHYQTPTPPSLPPPYYEDTPLPPIRGVSYASPPPPSIPYY
modifications: left off: Gal4 DNA-binding domain (from the vector pGBKT7), end not stated, kept
notes: LRR domain of LRX2 (BD-LRX2), gene At1g62440
interaction with FER^ECD (FER^ECD [5]): showed interaction with FER^ECD

B3: LRX3^ΔE: LRX3 lacking the extensin domain (protein)
chain: LSISSDGGVLSDNEVRHIQRRQLLEFAERSVKITVDPSLNFENPRLRNAYIALQAWKQAILSDPNNFTSNWIGSNVCNYTGVFCSPALDNRKIRTVAGIDLNHADIAGYLPEELGLLSDLALFHVNSNRFCGTVPHRFNRLKLLFELDLSNNRFAGKFPTVVLQLPSLKFLDLRFNEFEGTVPKELFSKDLDAIFINHNRFRFELPENFGDSPVSVIVLANNRFHGCVPSSLVEMKNLNEIIFMNNGLNSCLPSDIGRLKNVTVFDVSFNELVGPLPESVGEMVSVEQLNVAHNMLSGKIPASICQLPKLENFTYSYNFFTGEAPVCLRLPEFDDRRNCLPGRPAQRSPGQCKAFLSRPPVNCGSFSCGRSVSPRPPVVTPLPPPSLPSPPPPAPIFSTPPTLTSPPPPSPPPPVYSPPPPPPPPPPVYSPPPPPPPPPPPPVYSPPPPPPPPPPPPPVYSPPPPSPPPPPPPVYSPPPPPPPPPPPPVYSPPPPPVYSSPPPPPSPAPTPVYCTRPPPPPPHSPPPPQFSPPPPEPYYYSSPPPPHSSPPPHSPPPPHSPPPPIYPYLSPPPPPTPVSSPPPTPVYSPPPPPPCIEPPPPPPCIEYSPPPPPPVVHYSSPPPPPVYYSSPPPPPVYYSSPPPPPPVHYSSPPPPEVHYHSPPPSPVHYSSPPPPPSAPCEESPPPAPVVHHSPPPPMVHHSPPPPVIHQSPPPPSPEYEGPLPPVIGVSYASPPPPPFY
modifications: left off: double FLAG, C-terminal, kept
notes: LRX3 lacking the extensin domain
interaction with FER^ECD (FER^ECD [6]): revealed interaction of the two proteins; also recorded: show interaction with FER^ECD
